We go through one molecule from patent US20260001954A1 (Genentech, published 2026).

The Kd is the concentration at which binding is half-saturated.

In assay [1] the target is T1, CD3 (cluster of differentiation 3) (UniProt P07766 23-126).
T1 construct: also called CD3 antigen
The assay is described as follows: method not stated; monovalent KD used to calculate CD3 receptor occupancy; monovalent KD, used for CD3 receptor occupancy.

Assay [2] addresses CD3 on T cells of human peripheral blood mononuclear cells (PBMCs) (human, UniProt P07766 23-207). The experiment in a line: cell-based or functional assay.

T1 sequence (P07766 23-126): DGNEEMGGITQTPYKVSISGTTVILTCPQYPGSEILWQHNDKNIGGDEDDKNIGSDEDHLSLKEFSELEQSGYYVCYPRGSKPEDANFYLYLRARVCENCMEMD
Sequence of CD3 on T cells of human peripheral blood mononuclear cells (PBMCs) (P07766 23-207): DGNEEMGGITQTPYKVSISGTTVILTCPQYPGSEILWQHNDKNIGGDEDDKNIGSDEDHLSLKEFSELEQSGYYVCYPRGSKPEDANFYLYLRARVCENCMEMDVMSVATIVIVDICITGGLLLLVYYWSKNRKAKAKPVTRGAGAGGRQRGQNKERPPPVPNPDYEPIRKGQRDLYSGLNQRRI

B1: cevostamab (bispecific antibody, human IgG1, kappa, N297G)
heavy 1: not shown
light 1: DIQMTQSPSSLSASVGDRVTITCKASQDVRNLVVWFQQKPGKAPKLLIYSGSYRYSGVPSRFSGSGSGTDFTLTISSLQPEDFATYYCQQHYSPPYTFGQGTKVEIKRTVAAPSVFIFPPSDEQLKSGTASVVCLLNNFYPREAKVQWKVDNALQSGNSQESVTEQDSKDSTYSLSSTLTLSKADYEKHKVYACEVTHQGLSSPVTKSFNRGEC
heavy 2: EVQLVQSGAEVKKPGASVKVSCKASGFTFTSYYIHWVRQAPGQGLEWIGWIYPENDNTKYNEKFKDRVTITADTSTSTAYLELSSLRSEDTAVYYCARDGYSRYYFDYWGQGTLVTVSSASTKGPSVFPLAPSSKSTSGGTAALGCLVKDYFPEPVTVSWNSGALTSGVHTFPAVLQSSGLYSLSSVVTVPSSSLGTQTYICNVNHKPSNTKVDKKVEPKSCDKTHTCPPCPAPELLGGPSVFLFPPKPKDTLMISRTPEVTCVVVDVSHEDPEVKFNWYVDGVEVHNAKTKPREEQYGSTYRVVSVLTVLHQDWLNGKEYKCKVSNKALPAPIEKTISKAKGQPREPQVYTLPPSREEMTKNQVSLSCAVKGFYPSDIAVEWESNGQPENNYKTTPPVLDSDGSFFLVSKLTVDKSRWQQGNVFSCSVMHEALHNHYTQKSLSLSPGK
light 2: not shown
notes: Humanized full-length non-glycosylated IgG1 kappa, knobs-into-holes; also called BFCR4350A; RO7187797
As for B1, the Kd in assay [1] is 2.6 nM. In addition, the “50% effective concentration (EC50) for T-cell activation in the in vitro human PBMC: MOLP-2 co-culture” value in assay [2] is 0.0588 mg/L.
